Blank lines part the entries; values can stand above or below the binder they belong to.
Tests used:
[1] = molecular target: T1, hepatic lipase (HL) on hepatocyte (HepG2) cells (UniProt P11150 23-499, limits assumed); experiment: cell-based or functional assay
T1 sequence (looked up): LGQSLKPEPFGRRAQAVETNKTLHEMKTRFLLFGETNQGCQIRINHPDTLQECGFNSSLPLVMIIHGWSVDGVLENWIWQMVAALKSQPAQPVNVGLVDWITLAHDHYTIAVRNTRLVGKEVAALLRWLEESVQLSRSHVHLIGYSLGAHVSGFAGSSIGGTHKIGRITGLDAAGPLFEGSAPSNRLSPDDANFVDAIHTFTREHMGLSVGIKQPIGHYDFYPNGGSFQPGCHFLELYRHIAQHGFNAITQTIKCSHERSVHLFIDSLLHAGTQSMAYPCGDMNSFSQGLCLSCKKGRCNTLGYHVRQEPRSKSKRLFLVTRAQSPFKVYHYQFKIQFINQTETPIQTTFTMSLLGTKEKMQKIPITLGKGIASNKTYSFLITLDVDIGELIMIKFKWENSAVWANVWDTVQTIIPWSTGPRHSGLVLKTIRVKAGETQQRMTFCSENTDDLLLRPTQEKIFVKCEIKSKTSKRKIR

[2] = molecular target: lipoprotein lipase (LpL), SIGMA; experiment: cell-based or functional assay
Chain of lipoprotein lipase (LpL), SIGMA (P11151 29-478): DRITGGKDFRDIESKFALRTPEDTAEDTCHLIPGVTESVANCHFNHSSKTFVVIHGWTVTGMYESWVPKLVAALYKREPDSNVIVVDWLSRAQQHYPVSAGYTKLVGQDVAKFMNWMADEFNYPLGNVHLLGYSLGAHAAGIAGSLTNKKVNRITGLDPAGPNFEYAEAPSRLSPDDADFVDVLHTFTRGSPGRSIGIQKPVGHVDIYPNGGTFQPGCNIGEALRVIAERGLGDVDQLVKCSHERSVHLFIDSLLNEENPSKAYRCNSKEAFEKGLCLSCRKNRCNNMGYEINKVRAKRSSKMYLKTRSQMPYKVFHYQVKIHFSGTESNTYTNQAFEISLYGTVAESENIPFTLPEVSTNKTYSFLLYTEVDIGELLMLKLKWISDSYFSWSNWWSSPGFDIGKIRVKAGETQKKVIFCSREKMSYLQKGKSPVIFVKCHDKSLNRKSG

hepatic lipase activity in cell culture [1]: ~3 fold
hepatic lipase activity in live hepatocytes, 10 µM peptide [1]: ~2.8 fold
Binder: ARLSRCVQVLSRKLTLKAKALHARIQQNLDQLREELSRA [AV199-237]

LpL activity in the absence of VLDL, 10 µM peptide [2]: ~1.6 fold
LpL activity in the presence of VLDL, 10 µM peptide [2]: ~8 fold
LpL activity in the presence of VLDL, relative to AV199-232 [2]: 44%
Binder: ARLSRCVQVLSRKLTLKAKALKARIQQNLDQLRE [AV-H/K]

lipase stimulating activity, peptide (80 µg/ml) preincubated with VLDL (20 µg/ml) [2]: ~2 fold
Binder: ARLSRCVQVFSRKLTLKAKALKARIQQNFDQLRE [AV-H/K-2F]

From US20170305981A1 (UNIVERSITY OF CHICAGO, published 2017)
